Assays:
[1] = molecular target: TSH receptor (TSHR) on differentiated murine 3T3 L1 adipocytes (murine, UniProt P47750 22-764); test: cell-based or functional assay
[2] = molecular target: TSH receptor (TSHR) on primary human adipocytes (human, UniProt P16473 21-764); test: cell-based or functional assay
[3] = molecular target: T1, glycoprotein hormone beta 5 (GPHB5), human, beta subunit of CGH (human, UniProt Q86YW7 25-130); test: co-expression in CHO cells; secreted heterodimer
T1 construct: Secreted from CHO 180 cells
T1 sequence: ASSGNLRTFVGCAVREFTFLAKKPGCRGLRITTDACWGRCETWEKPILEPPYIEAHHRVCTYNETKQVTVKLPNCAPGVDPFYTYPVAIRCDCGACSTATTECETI

Sequence of TSH receptor (TSHR) on differentiated murine 3T3 L1 adipocytes (P47750 22-764): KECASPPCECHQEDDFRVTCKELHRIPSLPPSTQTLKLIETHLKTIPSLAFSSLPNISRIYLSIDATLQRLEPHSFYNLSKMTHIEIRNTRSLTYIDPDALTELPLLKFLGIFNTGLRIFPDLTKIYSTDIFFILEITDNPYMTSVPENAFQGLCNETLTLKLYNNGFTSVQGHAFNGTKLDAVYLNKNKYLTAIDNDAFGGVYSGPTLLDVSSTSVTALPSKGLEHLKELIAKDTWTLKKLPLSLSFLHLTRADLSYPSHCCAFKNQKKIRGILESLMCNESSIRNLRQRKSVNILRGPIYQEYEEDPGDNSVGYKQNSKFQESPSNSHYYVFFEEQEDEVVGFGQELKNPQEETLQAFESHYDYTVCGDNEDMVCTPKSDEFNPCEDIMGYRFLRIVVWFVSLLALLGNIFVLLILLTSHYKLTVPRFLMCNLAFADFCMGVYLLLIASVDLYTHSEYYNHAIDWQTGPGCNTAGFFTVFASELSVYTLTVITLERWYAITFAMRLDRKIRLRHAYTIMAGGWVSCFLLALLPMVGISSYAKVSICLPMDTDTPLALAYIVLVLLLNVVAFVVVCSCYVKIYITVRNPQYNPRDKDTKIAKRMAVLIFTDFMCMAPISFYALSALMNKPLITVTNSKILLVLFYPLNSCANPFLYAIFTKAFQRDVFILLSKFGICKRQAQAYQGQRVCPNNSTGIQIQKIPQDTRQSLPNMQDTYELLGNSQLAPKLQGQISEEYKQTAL
Sequence of TSH receptor (TSHR) on primary human adipocytes (P16473 21-764): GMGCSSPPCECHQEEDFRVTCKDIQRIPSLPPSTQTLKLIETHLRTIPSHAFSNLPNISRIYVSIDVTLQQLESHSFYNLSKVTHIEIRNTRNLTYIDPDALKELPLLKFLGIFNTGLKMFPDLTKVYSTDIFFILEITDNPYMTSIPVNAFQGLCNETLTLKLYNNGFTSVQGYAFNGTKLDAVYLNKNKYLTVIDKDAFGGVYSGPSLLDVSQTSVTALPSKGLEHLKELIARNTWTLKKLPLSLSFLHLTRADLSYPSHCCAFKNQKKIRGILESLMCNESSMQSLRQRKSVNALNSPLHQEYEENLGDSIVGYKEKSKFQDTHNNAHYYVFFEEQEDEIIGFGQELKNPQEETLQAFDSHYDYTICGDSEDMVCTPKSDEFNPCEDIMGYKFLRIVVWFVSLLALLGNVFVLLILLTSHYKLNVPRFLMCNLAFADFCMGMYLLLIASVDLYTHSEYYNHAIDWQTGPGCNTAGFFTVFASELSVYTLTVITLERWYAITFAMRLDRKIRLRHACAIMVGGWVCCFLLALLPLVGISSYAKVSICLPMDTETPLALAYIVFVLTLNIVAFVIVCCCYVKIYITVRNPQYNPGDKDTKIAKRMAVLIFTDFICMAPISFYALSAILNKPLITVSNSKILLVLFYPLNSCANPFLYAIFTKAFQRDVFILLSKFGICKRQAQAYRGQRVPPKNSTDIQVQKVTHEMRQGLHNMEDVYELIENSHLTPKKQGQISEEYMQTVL

| Binder | induction of luciferase expression (CRE-luciferase reporter, cAMP) [1] [fold] | induction of the reporter gene (CRE-luciferase reporter, cAMP) [2] [fold] | binding result [3] |
| --- | --- | --- | --- |
| corticotroph-derived glycoprotein hormone (CGH), human recombinant, non-covalent heterodimer of GPHA2 and GPHB5 (ligand) chain 1: QEAVIPGCHLHPFNVTVRSDRQGTCQGSHVAQACVGHCESSAFPSRYSVLVASGYRHNITSVSQCCTISGLKKVKVQLQCVGSRREELEIFTARACQCDMCRLSRY chain 2: ASSGNLRTFVGCAVREFTFLAKKPGCRGLRITTDACWGRCETWEKPILEPPYIEAHHRVCTYNETKQVTVKLPNCAPGVDPFYTYPVAIRCDCGACSTATTECETI | 27 | 14 | – |
| glycoprotein hormone alpha2 (GPHA2), human, alpha subunit of CGH (ligand, Secreted from CHO 180 cells; also called Zsig51) QEAVIPGCHLHPFNVTVRSDRQGTCQGSHVAQACVGHCESSAFPSRYSVLVASGYRHNITSVSQCCTISGLKKVKVQLQCVGSRREELEIFTARACQCDMCRLSRY | – | – | binds |

From US20030095983A1 (ZymoGenetics, published 2003)
